According to PMC6733660 (Virology, 2019):
Where a chain is given by its changes, count along the chain named.

T1: Pep-8 (gp350 aa 142–161) (Epstein-Barr virus, strain B95-8)
T1 chain: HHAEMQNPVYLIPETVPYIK

B1: HB20 (antibody, V domains shown)
VH: ELVKPGASVKLSCKASGYTFTSYWIQWVKQRPGQGLEWIGEINPTNGHTNYNEKFKTKATLTVDKSSSTAYMRLSSLTSEDSAVYYCARNLYYYGRPDYWGQGTSVTVSS
VL: SLSASLGDRVTISCRASQDIGNYLNWYQQKPDGTVKLLIYYTSRLHSGVPSRFSGSGSGTDYSLTISNLEQEDIATYFCQQGNALPPTFGGGTKLEIK
B2: humanized 72A1 (h72A1) (antibody, V domains shown)
VH: EVQLVESGGGLVQPGGSLRLSCAASGSSFTDYTMNWMRQSPGKGLEWIGLINPYNGGTRYADSVKGRATLSLDKSKNTAYLQMNSLRAEDTAIYYCAGGLRRVNWFAYWGQGTLVTVSS
VL: DAQLTQSPILLSASVGDRVTITCRSSTGAVTTSNYANWVQERTNGSFRGLIGGTNNRVPGVPSRFSGSLSGDDATLTISSLQPEDEADYFCVLWHSNHWVFGAGTKVEIK
B3: HB11 (antibody, V domains shown)
VH: SLVKPSQTLSLTCSVTGDSITSGFWNWIRKFPGNKLEYMGYISYSGSTYYNPSLKSRISITRDTSKNQYYLQLNSVTTEDTATYYCARGNGGNYDWYFDVWGAGTTVTVSS
VL: IMSASLGEKVTMSCRASSSVNFMNWYQQKSDDSPKLLIYYISNLAPGVPARFSGSGSGNSYSLTISGMEGEDAATYYCQQFTSSPSWTFGGGTKLEIK
B4: murine 72A1 (m72A1) (antibody, V domains shown)
VH: EVQLQQSGPELVKPGTSMKISCKASGSSFTDYTMNWMKQSHGKNLEWIGLINPYNGGTRYNQKFKGKATLTLDKSSSTAYMEVLSLTSEDSAVYYCAGGLRRVNWFAYWGQGTLVSVSA
VL: QAVLTQESALTTSPGETVTLTCRSSTGAVTTSNYANWVQEKPDHLFTGLIGGTNNRVPGVPARFSGSLIGDKAALTITGAQTEDEAIYFCVLWHSNHWVFGGGTKLTVL
B5: HB5 (antibody, V domains shown)
VH: ELVRPGASVKISCKAFGYTFTNHNINWVKQRPGQGLDWIGYINPYNDYTSYNQKFKGKATLTVDKSSNTAYMELSSLTSEDSAVYYCARSEGWLRRGAWFAYWGQGTLVTVSA
VL: ILSVSPGERVSFSCRASQSIGTSIHWYQQRTNDSPRLLIKYASESISGIPPRFSGSGSGTDFTLSINSVESEDIADYHCQQSNSWPMLTFGAGTKLELK
B6: HB17 (antibody, V domains shown)
VH: B1 VH with K4I, L11V, Q26H, R31W, T45N, T57S, R73Q, Y92F, G95S
VL: B1 VL with V35I, Q71E, A84T
B7: HB3 (antibody, V domains shown)
VH: B1 VH with K4R, T21A, I25M, R31W, T45N, K54R, T57N, T60S, R73Q
VL: B1 VL with V35I, Q71E, A84T
B8: HB10 (antibody, V domains shown)
VH: B1 VH with K4R, I25M, Q26H, R31W, L36P, T45S, K54R, T57N, R73Q
VL: B1 VL with Q71E, A84T
B9: HB14 (antibody, V domains shown)
VH: SGAELVRPGASVNLSCKALGYTFTDYEMHWVKQTPVYGLEWIGTIHPRRGGTAYNQRFKGKAALTADKSSSTAYMELSSLTSEDSAVYYCARYGYPWYFDVWGAGTTVTVSS
VL: SLPVSLGDQASISCRSSQSIVHDNGNTYLEWYLQKPGQSPKLLIYKVSNRFSGVLDKFSGSGSGTDFTLKISRVEAEDLGIYYCFQGSHVPPTFGGGTKLEIK
B10: HB22 (antibody, V domains shown)
VH: GLVAPSQSLSITCTVSGFSLTNYGIHWVRQPPGKGLEWLVVIWSDGSTIYNSALKSRLSISKDNSKSQVFLKMNSLQTDDTAMYYCARNYYGNSYPAWFAYWGQGTLVTVSA
VL: B9 VL with D23S, L55P, K57R, K70R, I81V, P92W
B11: HB2 (antibody, V domains shown)
VH: ELKKPGETVKISCKASGYTFTAYSMHWVKLTPGKGLKWMGWINTKTGEPTYADDFKGRFAFSLETSASTAYLQINNLKNEDTATYFCAPYGYALDYWGQGTSVTVSS
VL: ILSASPGEKVTMTCRATSSVNYMHWYQQKPGSSPKPWIYATSNLASGVPARFSGSGSGTSYSLTISRVEAEDAATYYCQQWSSNPPTFGAGTKLELK
B12: HB6 (antibody, V domains shown)
VH: B11 VH with K3R, A22D, L30Q, K45R, T50R
VL: B11 VL
B13: HB8 (antibody, V domains shown)
VH: ELKKPGETVKISCKASGYSFTNYGMNWVKQAPGKGLKWMGWINTYTGEPTYADDFKGRFAFSLETSASTAFLQINNLKNEDTATYLCARYYYGSVYSAWFAYWGQGTLVTVSA
VL: LSLPVSLGDQASISCRSSQSIVHSNGNTYLEWYLQKAGQSPKLLIYKVSNRFSGVPDRFGGSGSGTDFTLKISRVEAEDLGVYYCFQGSHVPYTFGGGTKLEIK
B14: HB9 (antibody, V domains shown)
VH: GGLVKPGGSLKLSCAASGFTFSSYTMSWVRQTPEKRLEWVATISSGGSYIYYPDSVKGRFTISRDNAKNTLYLQMSSLKSEDTAIYYCTREDFYYGSSYGFFDVWGAGTTVTVSS
VL: B13 VL
B15: HB7 (antibody, V domains shown)
VH: ELVRPGASVKLSCKALGYTFTDYEMHWVKQTPVHGLEWIGTISPGRSGTAYNQKFKGKATLTADKSSRTAYMELNSLTSEDSAVYYCSRYGHPSYLDVWGAGTTVTVSS
VL: FMSTSVGDRVNITCKASQSVGNAVAWFQQKPGQSPKLLIYSASNRYTGIPDRFTGSGSGTDFTLTCNNMQSEDLADYFCQQYSSYPLTFGAGTKLELK

Molecular target: T1, Pep-8 (gp350 aa 142–161)
Test: ELISA

Binder	binding result
B1	binds
B2	binds
B3	binds
B4	binds
B5	binds

molecular target: T2, recombinant EBV gp350 ectodomain (aa 4–863) (Epstein-Barr virus, strain  …, UniProt P03200-1); test: ELISA
T2 sequence (P03200 4-863): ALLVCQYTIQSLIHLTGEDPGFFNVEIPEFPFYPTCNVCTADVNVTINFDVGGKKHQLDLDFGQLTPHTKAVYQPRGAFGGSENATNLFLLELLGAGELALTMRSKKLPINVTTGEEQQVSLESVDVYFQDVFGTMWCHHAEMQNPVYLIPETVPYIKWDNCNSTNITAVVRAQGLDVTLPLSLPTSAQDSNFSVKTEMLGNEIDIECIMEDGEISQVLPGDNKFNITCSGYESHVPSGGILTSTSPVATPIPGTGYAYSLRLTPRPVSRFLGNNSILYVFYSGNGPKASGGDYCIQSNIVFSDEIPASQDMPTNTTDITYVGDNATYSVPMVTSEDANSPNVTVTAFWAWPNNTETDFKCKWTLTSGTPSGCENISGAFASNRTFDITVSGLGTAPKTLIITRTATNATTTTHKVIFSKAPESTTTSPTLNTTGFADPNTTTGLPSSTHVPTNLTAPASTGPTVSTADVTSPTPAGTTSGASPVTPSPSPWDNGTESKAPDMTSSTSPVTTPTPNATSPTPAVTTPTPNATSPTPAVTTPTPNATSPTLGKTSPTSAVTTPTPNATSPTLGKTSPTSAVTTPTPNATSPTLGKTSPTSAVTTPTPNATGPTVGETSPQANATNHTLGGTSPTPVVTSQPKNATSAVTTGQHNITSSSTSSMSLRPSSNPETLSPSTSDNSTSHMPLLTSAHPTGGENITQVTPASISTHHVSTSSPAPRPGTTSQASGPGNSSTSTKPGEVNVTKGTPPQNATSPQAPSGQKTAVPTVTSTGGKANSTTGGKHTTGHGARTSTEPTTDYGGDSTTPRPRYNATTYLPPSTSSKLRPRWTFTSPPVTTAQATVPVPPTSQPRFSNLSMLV

Binder	binding result
B6	binds
B7	binds
B8	binds
B9	binds
B10	binds
B11	binds
B12	binds
B13	binds
B14	binds
B15	binds

molecular target: T2, recombinant EBV gp350 ectodomain (aa …); test: ELISA; remark: another data set of the same source

Binder	binding result
B2	binds
